Reference: paper PMC3578163 (Chemical research in toxicology, 2013)
Like-named read-outs stand apart in the source and are kept apart here.

What was measured:
Experiment in all cases: fluorescence polarization
[1] = molecular target: T1, DNA polymerase kappa catalytic core (hpol κ19-526) (Homo sapiens, UniProt Q9UBT6 19-526)
T1 sequence: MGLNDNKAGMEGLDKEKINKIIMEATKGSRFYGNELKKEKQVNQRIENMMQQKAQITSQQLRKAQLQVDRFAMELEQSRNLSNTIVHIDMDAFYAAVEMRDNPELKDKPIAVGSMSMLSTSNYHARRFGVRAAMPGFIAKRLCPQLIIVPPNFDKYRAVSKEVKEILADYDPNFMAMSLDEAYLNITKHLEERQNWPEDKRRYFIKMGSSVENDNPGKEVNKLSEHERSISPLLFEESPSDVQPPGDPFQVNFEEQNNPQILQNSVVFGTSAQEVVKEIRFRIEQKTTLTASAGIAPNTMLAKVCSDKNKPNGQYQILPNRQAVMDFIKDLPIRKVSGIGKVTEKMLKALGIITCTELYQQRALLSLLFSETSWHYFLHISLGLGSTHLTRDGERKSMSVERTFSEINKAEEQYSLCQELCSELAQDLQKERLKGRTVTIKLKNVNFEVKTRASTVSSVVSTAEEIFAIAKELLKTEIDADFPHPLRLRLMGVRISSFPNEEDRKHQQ

[2] = molecular target: T2, DNA polymerase iota catalytic core (hpol ι26-446) (Homo sapiens, UniProt Q9UNA4 26-446)
T2 sequence: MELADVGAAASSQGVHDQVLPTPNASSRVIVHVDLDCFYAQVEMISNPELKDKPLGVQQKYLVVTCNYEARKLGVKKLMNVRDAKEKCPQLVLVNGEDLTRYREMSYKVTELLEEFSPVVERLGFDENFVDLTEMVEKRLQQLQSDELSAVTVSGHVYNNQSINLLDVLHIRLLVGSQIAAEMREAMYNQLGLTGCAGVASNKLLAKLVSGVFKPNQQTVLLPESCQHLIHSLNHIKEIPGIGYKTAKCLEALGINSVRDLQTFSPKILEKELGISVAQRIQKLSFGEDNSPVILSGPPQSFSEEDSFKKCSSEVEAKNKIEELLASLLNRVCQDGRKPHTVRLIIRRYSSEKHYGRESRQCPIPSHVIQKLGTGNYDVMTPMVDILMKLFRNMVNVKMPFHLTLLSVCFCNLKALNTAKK

[3] = molecular target: T2, DNA polymerase iota catalytic core …; remark: listed apart in the source
[4] = molecular target: T1, DNA polymerase kappa catalytic core …; remark: listed apart in the source
[5] = molecular target: T2, DNA polymerase iota catalytic core …; remark: listed apart in the source
[6] = molecular target: T2, DNA polymerase iota catalytic core …; remark: listed apart in the source
[7] = molecular target: T1, DNA polymerase kappa catalytic core …; remark: listed apart in the source
[8] = molecular target: T2, DNA polymerase iota catalytic core …; remark: listed apart in the source

B1: FAM-13/18mer primer-template DNA (dsDNA)
DNA 1: TTTGGGGGAAGGATTC
DNA 2: TCACGGAATCCTTCCCCC
Kd [1]: 13.7 ± 5.1 nM
Kd [2]: 5.5 ± 0.7 nM
Kd [3]: 9.1 ± 1.6 nM
Kd [4]: 19 ± 5.6 nM
Kd [5]: 6.3 ± 0.9 nM
Kd [6]: 8.8 ± 1.3 nM
Kd [7]: 11.1 ± 5.1 nM
Kd [8]: 5.3 ± 0.7 nM
